The values below come from patent US5968526A, “T cell epitopes of the major allergens from Dermatophagoides (house dust mite)” (Immulogic Pharamaceutical Corporation, priority 1995, dated 1999).

Series [1] in a line: pH-stability profile / solution stability (HPLC). The format is physicochemical. The conditions noted are these: pH 6 to pH 8. On the procedure:
(§1) 50 mM sodium phosphate stock solutions:
(§2) Stock solution A: 0.66 g […] of monobasic sodium phosphate monohydrate U.S.P. and 50 mg EDTA disodium dihydrate, U.S.P. were dissolved in 100 mL of WFI. The solution was filtered through a 0.2 micron filter
(§3) Stock solution B: 0.71 g […] of dibasic sodium phosphate U.S.P. were disolved in 100 ml WFI. The solution was filtered through a 0.2 micron filter.
(§4) 2. Initial peptide dispersions
(§5) Dispersion A: 3.0 mg of each candidate peptide,DPI-21.2 (SEQ. ID. NO. 28), DFI-22.2 (SEQ. ID. NO. 93), DFI-23.31(SEQ. ID. NO. 165), DFI-26.6 (SEQ. ID. NO. 168), DPII-20.9 (SEQ. ID. NO. 169), DPII-22.14 (SEQ. ID. NO. 180) and DPII-25.15 (SEQ. ID. NO. 188), was weighed out separately and placed in separate 1.5 mL eppendoff vials with 600 μL of stock solution A. The composition was agitated for 1 seconds to mix well.
(§6) Dispersion B: 3.0 mg of each peptide, DPI-21.2 (SEQ. ID. NO. 28), DFI-22.2 (SEQ. ID. NO. 93), DFI-23.31(SEQ. ID. NO. 165), DFI-26.6 (SEQ. ID. NO. 168), DPII-20.9 (SEQ. ID. NO. 169), DPII-22.14 (SEQ. ID. NO. 180) and DPII-25.15 (SEQ. ID. NO. 188), was weighed out separately and placed in separate 1.5 mL eppendoff vials with 600 μL of stock solution B. The mixture was agitated for 5 seconds to mix well.
(§7) Dispersions A and B were sonicated for 2 minutes for good homogeneity. A small volume was pipetted from each dispersion into a labeled eppendoff vial according to the following volume ratio:
(§8) The resultant solutions/suspensions were stored in the dark at about 22° C.±2 for 24 hours without agitation. The solutions were filtered and filtrates were analyzed for pH and peptide concentration.
(§9) The concentration of filtered peptide solutions was determined by HPLC analysis. In this experiment, the solubility of peptide at each pH is defined as the amount of peptide remaining in solution after filtration through a membrane filter having a 0.2 micrometer pore size. The extent of degradation of peptides was estimated by calculating the percent of total degradant peak area over the total peak area.
The pH-stability profiles for each peptide DPI-21.2 (SEQ. ID. NO. 28), DFI-22.2 (SEQ. ID. NO. 93), DFI-23.31(SEQ. ID. NO. 165), DFI-26.6 (SEQ. ID. NO. 168), DPII-20.9 (SEQ. ID. NO. 169), DPII-22.14 (SEQ. ID. NO. 180) and DPII-25.15 (SEQ. ID. NO. 188) in equal concentration combination at 3, 2, and 1 mg/ml per peptide and prepared in duplicate as described above with one set stored at about 5° C. for 24 hours and one set stored at about 22° C.±2 for 24 hours, were calculated and tabulated as a function of the percentage of total of degradant peak area (FIG. 38).

A further series in a line: pH-solubility profile. The format is physicochemical. The conditions noted are these: at a pH in the range pH 6 to pH 8. On the procedure:
as §1, §2, §3, §4, §5, §6, §7, §8, §9
The pH values with respect to the solubility values was plotted and are shown in FIG. 37 for each respective peptide. As shown in the solubility curve for each peptide as represented in FIG. 37, peptides DPI-21.2 (SEQ. ID. NO. 28), DFI-22.2 (SEQ. ID. NO. 93), DFI-23.31 (SEQ. ID. NO. 165), DFI-26.6 (SEQ. ID. NO. 168), DPII-20.9 (SEQ. ID. NO. 169), DPII-22.14 (SEQ. ID. NO. 180) and DPII-25.15 (SEQ. ID. NO. 188) are each soluble at greater than 3 mg/ml at a pH in the pH range of pH 6 to pH 8.

The next series concerns human IgE. In words: direct binding ELISA of IgE to mite allergen proteins and peptides. The conditions noted are these: data not shown. As for the experimental part:
The coating antigens were removed and the wells are blocked with 0.5% gelatin in PBS, 300 μl/well for 2 hours at room temperature. Pooled human plasma (a mix of plasma samples from 20 patients that were skin test positive for commerical mite extract) was serially diluted with PBS-Tween 20 (PBS with 0.05% nonionic detergent Tween-20 Sigma, St. Louis, Mo.) and 100 μl/well a.backslash.was added and incubated overnight at 4° C. (plasma dilutions were tested in duplicate). The second antibody (biotinylated goat anti-Human IgE, 1:1000, Kirkegaard & Perry Laboratories Inc, Gaithersburg, Md.), was added at 100 μl/well for one hour at room temperature. This solution was removed and streptavidin-HRPO, 1:10000, (Southern Biotechnology Associates, Inc., Birmingham, Ala.) was then added at 100 μl/well for one hour at room temperature (all wells are washed three times with PBS-Tween between each incubation step). TMB Membrane Peroxidase Substrate system (Kirkegaard & Perry Laboratories) was freshly miced, and added at […]. The color was allowed to develop for 2-5 minutes. The reaction was stopped by the addition of […] of 1M phosphoric acid. Plates were read on a Microplate IL310 Autoreader (Biotech Instruments, Winooski, Vt.) with a 450 nm filter. The absorbance levels of duplicate wells were averaged. The order of coating antigens listed vertically in these figure legends corresponds in orDer from left to right to the coating antigens listed for each histogram.
The antigen preparation that was used as a positive control was a mixture of the four major biochemically purified mite allergens (term PMA for Purified Mite Allergen); Der f I, Der f II, Der p I and Der p II. The stock was generated at a concentration of 100 μgs of each protein per millimeter or 400 μgs total protein/ml. This preparation was used on each coated ELISA plate.

For another series, the system named is mast cells or basophils. Nature of the series: histamine release. The series is classed as cell-based, human. Particulars: data not shown. On the procedure:
To determine whether a peptide which binds IgE results in the release of mediators, a histamine release assay can be performed using standard reagents and protocols obtained for example, from Amac, Inc. (Westbrook, Me.). Briefly, a buffered solution of a peptide to be tested is combined with an equal volume of whole heparinized blood from an allergic subject. After mixing and incubation, the cells are pelleted and the supernatants are processed and analyzed using a radioimmunoassay to determine the amount of histamine released.

For the substance “DP II-25.15: modified Der p II peptide; unique peptide (DEETVKVMGDDGVLACAIATHAKIRDEE)”, the “stability (in words)” value in series [1] is on record as “acceptable solution stability”. For the same substance, the solubility entry in the series “pH-solubility profile” is reported as “greater than 3 mg/ml”. In addition, the “IgE reactivity, candidate peptides” value in the series with human IgE is “negative”. Moreover, the histamine release result with mast cells or basophils is given as “negative”.
